Measurements taken from patent US9284543B2, “Neutral active soluble truncated PH20 polypeptides and uses thereof” (Halozyme, Inc., priority 2008, dated 2016).

Tests used:
[1] = system: CHO-S cells; assay: Western blot analysis of PH20 expression in media and cells after transient expression; format: cell-based, Chinese Hamster; details: media versus cells
Method: The mutant PH20-HZ24 plasmids generated in Example 1 were transiently […] into CHO—S cells (derived from Chinese Hamster Ovary CHO K1 cells) using GeneJuice® (Novagen) according to the manufacturer's instructions. In short, the CHO—S cells were grown in CD CHO medium supplemented with L-glutamine. Prior to transfection, the CHO—S cells were plated in 6-well plates, with approximately 5×10^5 cells per well, and grown overnight at 37° C. with 5% CO2. The medium was then removed and the CHO—S cells were washed 2 times with 1 mL serum-free medium. GeneJuice® was mixed with serum-free media followed by the addition of 2 μg mutant-HZ24 DNA. After incubating at room temperature for 5-15 minutes, the GeneJuice®/DNA mixture was added dropwise to an individual well containing the washed CHO—S cells. After 4 hours, the medium was replaced with 1 mL CD-CHO medium supplemented with L-glutamine and the cells were incubated for 72 hours at 37° C. with 5% CO2. Following expression, the media and cells were harvested separately.
The mutant PH20-HZ24 plasmids generated in Example 1 were transiently […] into CHO—S cells using GeneJuice® (Novagen) according to the manufacturer's instructions. […]
In this example, following transient expression, as described in Example 2 above, the media and cells were harvested separately and analyzed for PH20 expression and solublility by Western blot analysis. Solubility of the C-terminus truncation mutants was determined by examining whether the expressed protein was present in the growth media or in the cells. […] Cells expressing these mutants were treated with phosphoinositol-phospholipase C (PI-PLC), which cleaves the GPI-anchor allowing the release of soluble protein into the media, and the presence of PH20 in the resulting media and cells was determined by Western blot analysis.
Non-reduced samples were run on a 4-20% Tris-Glycine gel and transferred to PVDF membrane using iBlot (Invitrogen). For the Western blot, rabbit anti-PH20 IgG (0.5 μg/mL) was used as the primary antibody and HRP-conjugated goat anti-rabbit IgG (0.1 ng/mL, Cat#DC03L, EMD) was used as the secondary antibody. Evidence of expression is determined by a band at approximately 66 kDa, corresponding to recombinant human PH20 hyaluronidase.

[2] = Microtiter hyaluronidase activity assay with biotinylated-hyaluronic acid; format: biochemical; details: Table 6, 72 hour post transfection supernatant
Method: In Example 4, the hyaluronidase activity of truncated human PH20 hyaluronidase is determined using biotinylated hyaluronic acid. The free carboxyl groups on the glucuronic acid residues of hyaluronic acid are biotinylated, and the biotinylated hyaluronic acid substrate is covalently coupled to a microtiter plate. Following incubation with hyaluronidase, the residual biotinylated hyaluronic acid substrate is detected using an avidin-peroxidase reaction, and compared to that obtained following reaction with hyaluronidase standards of known activity. […] The sensitivity permits rapid measurement of hyaluronidase activity from cultured cells and biological samples with an inter-assay variation of less than 10%.
In this example, the human PH20 hyaluronidase carboxy-terminus deletion mutants were tested for their PH20 hyaluronidase activity using a microtiter assay with biotinylated-hyaluronic acid (biotinylated-HA or bHA). The human PH20 hyaluronidase carboxy-terminus deletion mutants were tested for hyaluronidase activity at both pH 7.4 and pH 5.5.
In short, a 4×BH 96-well plate was coated with biotinylated-HA (1.1 MDa). The 72 hour post transfection supernatant from cells transfected with human PH20 hyaluronidase carboxy-terminus deletion mutants was diluted in buffer at either pH 7.4 or pH 5.5 and added to individual wells of the plate and allowed to incubate at 37° C. for 90 minutes. The reaction was terminated by addition of 4M guanidine HCl. The wells were washed 4× with Phosphate Buffered Saline with Tween20 (PBST) to remove any digested biotinylated-HA followed by addition of streptavidin-HRP for 1 hour at room temperature. The wells were washed 4× with PBST and the plate was developed with TMB. The plate was read at 450 nm using an ELISA plate reader. Hyaluronidase activity (in Units/mL) was determined by interpolating the measured absorbance at 450 nm with a hyaluronidase reference standard curve. Full length mature human PH20 hyaluronidase and untransfected CHO cells were used as positive and negative controls.

| Molecule | Expressed in Media [1] | pH 5.5 Activity [2] | pH 7.4 Activity [2] |
| --- | --- | --- | --- |
| SPAM1-IDAF: C-terminally truncated human PH20, precursor 468 aa (SEQ ID NO:32), mature 433 aa (SEQ ID NO:84) (protein, listed as Homo sapiens, HuPH20 precursor 1-468; Mature HuPH20 36-468) chain 1: MGVLKFKHIFFRSFVKSSGVSQIVFTFLLIPCCLTLNFRAPPVIPNVPFLWAWNAPSEFCLGKFDEPLDMSLFSFIGSPRINATGQGVTIFYVDRLGYYPYIDSITGVTVNGGIPQKISLQDHLDKAKKDITFYMPVDNLGMAVIDWEEWRPTWARNWKPKDVYKNRSIELVQQQNVQLSLTEATEKAKQEFEKAGKDFLVETIKLGKLLRPNHLWGYYLFPDCYNHHYKKPGYNGSCFNVEIKRNDDLSWLWNESTALYPSIYLNTQQSPVAATLYVRNRVREAIRVSKIPDAKSPLPVFAYTRIVFTDQVLKFLSQDELVYTFGETVALGASGIVIWGTLSIMRSMKSCLLLDNYMETILNPYIINVTLAAKMCSQVLCQEQGVCIRKNWNSSDYLHLNPDNFAIQLEKGGKFTVRGKPTLEDLEQFSEKFYCSCYSTLSCKEKADVKDTDAVDVCIADGVCIDAF chain 2: LNFRAPPVIPNVPFLWAWNAPSEFCLGKFDEPLDMSLFSFIGSPRINATGQGVTIFYVDRLGYYPYIDSITGVTVNGGIPQKISLQDHLDKAKKDITFYMPVDNLGMAVIDWEEWRPTWARNWKPKDVYKNRSIELVQQQNVQLSLTEATEKAKQEFEKAGKDFLVETIKLGKLLRPNHLWGYYLFPDCYNHHYKKPGYNGSCFNVEIKRNDDLSWLWNESTALYPSIYLNTQQSPVAATLYVRNRVREAIRVSKIPDAKSPLPVFAYTRIVFTDQVLKFLSQDELVYTFGETVALGASGIVIWGTLSIMRSMKSCLLLDNYMETILNPYIINVTLAAKMCSQVLCQEQGVCIRKNWNSSDYLHLNPDNFAIQLEKGGKFTVRGKPTLEDLEQFSEKFYCSCYSTLSCKEKADVKDTDAVDVCIADGVCIDAF | YES | 0.6278 Units/ml | 0.5625 Units/ml |
| SPAM1-CIDA: C-terminally truncated human PH20, precursor 467 aa (SEQ ID NO:33), mature 432 aa (SEQ ID NO:85) (protein, listed as Homo sapiens, HuPH20 precursor 1-467; Mature HuPH20 36-467) chain 1: MGVLKFKHIFFRSFVKSSGVSQIVFTFLLIPCCLTLNFRAPPVIPNVPFLWAWNAPSEFCLGKFDEPLDMSLFSFIGSPRINATGQGVTIFYVDRLGYYPYIDSITGVTVNGGIPQKISLQDHLDKAKKDITFYMPVDNLGMAVIDWEEWRPTWARNWKPKDVYKNRSIELVQQQNVQLSLTEATEKAKQEFEKAGKDFLVETIKLGKLLRPNHLWGYYLFPDCYNHHYKKPGYNGSCFNVEIKRNDDLSWLWNESTALYPSIYLNTQQSPVAATLYVRNRVREAIRVSKIPDAKSPLPVFAYTRIVFTDQVLKFLSQDELVYTFGETVALGASGIVIWGTLSIMRSMKSCLLLDNYMETILNPYIINVTLAAKMCSQVLCQEQGVCIRKNWNSSDYLHLNPDNFAIQLEKGGKFTVRGKPTLEDLEQFSEKFYCSCYSTLSCKEKADVKDTDAVDVCIADGVCIDA chain 2: LNFRAPPVIPNVPFLWAWNAPSEFCLGKFDEPLDMSLFSFIGSPRINATGQGVTIFYVDRLGYYPYIDSITGVTVNGGIPQKISLQDHLDKAKKDITFYMPVDNLGMAVIDWEEWRPTWARNWKPKDVYKNRSIELVQQQNVQLSLTEATEKAKQEFEKAGKDFLVETIKLGKLLRPNHLWGYYLFPDCYNHHYKKPGYNGSCFNVEIKRNDDLSWLWNESTALYPSIYLNTQQSPVAATLYVRNRVREAIRVSKIPDAKSPLPVFAYTRIVFTDQVLKFLSQDELVYTFGETVALGASGIVIWGTLSIMRSMKSCLLLDNYMETILNPYIINVTLAAKMCSQVLCQEQGVCIRKNWNSSDYLHLNPDNFAIQLEKGGKFTVRGKPTLEDLEQFSEKFYCSCYSTLSCKEKADVKDTDAVDVCIADGVCIDA | YES | 0.4725 Units/ml | 0.5535 Units/ml |
| SPAM1-DAFL: C-terminally truncated human PH20, precursor 469 aa (SEQ ID NO:31), mature 434 aa (SEQ ID NO:83) (protein, listed as Homo sapiens, HuPH20 precursor 1-469; Mature HuPH20 36-469) chain 1: MGVLKFKHIFFRSFVKSSGVSQIVFTFLLIPCCLTLNFRAPPVIPNVPFLWAWNAPSEFCLGKFDEPLDMSLFSFIGSPRINATGQGVTIFYVDRLGYYPYIDSITGVTVNGGIPQKISLQDHLDKAKKDITFYMPVDNLGMAVIDWEEWRPTWARNWKPKDVYKNRSIELVQQQNVQLSLTEATEKAKQEFEKAGKDFLVETIKLGKLLRPNHLWGYYLFPDCYNHHYKKPGYNGSCFNVEIKRNDDLSWLWNESTALYPSIYLNTQQSPVAATLYVRNRVREAIRVSKIPDAKSPLPVFAYTRIVFTDQVLKFLSQDELVYTFGETVALGASGIVIWGTLSIMRSMKSCLLLDNYMETILNPYIINVTLAAKMCSQVLCQEQGVCIRKNWNSSDYLHLNPDNFAIQLEKGGKFTVRGKPTLEDLEQFSEKFYCSCYSTLSCKEKADVKDTDAVDVCIADGVCIDAFL chain 2: LNFRAPPVIPNVPFLWAWNAPSEFCLGKFDEPLDMSLFSFIGSPRINATGQGVTIFYVDRLGYYPYIDSITGVTVNGGIPQKISLQDHLDKAKKDITFYMPVDNLGMAVIDWEEWRPTWARNWKPKDVYKNRSIELVQQQNVQLSLTEATEKAKQEFEKAGKDFLVETIKLGKLLRPNHLWGYYLFPDCYNHHYKKPGYNGSCFNVEIKRNDDLSWLWNESTALYPSIYLNTQQSPVAATLYVRNRVREAIRVSKIPDAKSPLPVFAYTRIVFTDQVLKFLSQDELVYTFGETVALGASGIVIWGTLSIMRSMKSCLLLDNYMETILNPYIINVTLAAKMCSQVLCQEQGVCIRKNWNSSDYLHLNPDNFAIQLEKGGKFTVRGKPTLEDLEQFSEKFYCSCYSTLSCKEKADVKDTDAVDVCIADGVCIDAFL | YES | 2.2365 Units/ml | 2.3895 Units/ml |
| SPAM1-AFLK: C-terminally truncated human PH20, precursor 470 aa (SEQ ID NO:30), mature 435 aa (SEQ ID NO:82) (protein, listed as Homo sapiens, HuPH20 precursor 1-470) MGVLKFKHIFFRSFVKSSGVSQIVFTFLLIPCCLTLNFRAPPVIPNVPFLWAWNAPSEFCLGKFDEPLDMSLFSFIGSPRINATGQGVTIFYVDRLGYYPYIDSITGVTVNGGIPQKISLQDHLDKAKKDITFYMPVDNLGMAVIDWEEWRPTWARNWKPKDVYKNRSIELVQQQNVQLSLTEATEKAKQEFEKAGKDFLVETIKLGKLLRPNHLWGYYLFPDCYNHHYKKPGYNGSCFNVEIKRNDDLSWLWNESTALYPSIYLNTQQSPVAATLYVRNRVREAIRVSKIPDAKSPLPVFAYTRIVFTDQVLKFLSQDELVYTFGETVALGASGIVIWGTLSIMRSMKSCLLLDNYMETILNPYIINVTLAAKMCSQVLCQEQGVCIRKNWNSSDYLHLNPDNFAIQLEKGGKFTVRGKPTLEDLEQFSEKFYCSCYSTLSCKEKADVKDTDAVDVCIADGVCIDAFLK | YES | 2.925 Units/ml | 3.204 Units/ml |
